According to publication PMC10922792 (Journal of molecular biology, 2024):

Biological target: T1, hPASK PAS-A domain (residues 131–237) (human, UniProt Q96RG2 131-237, uniformly 15N-labeled)
T1 sequence (looked up): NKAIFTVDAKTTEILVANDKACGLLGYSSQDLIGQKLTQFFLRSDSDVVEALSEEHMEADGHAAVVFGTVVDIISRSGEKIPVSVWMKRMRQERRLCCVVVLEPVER
Assay: NMR titration

Kd: 2400 µM
B1: PIM peptide (PASK AA 879–904) (peptide, UniProt Q96RG2 879-904, looked up)
peptide: MRGAAGLQREIQEGAYSGSCYHRDGL
